In PMC8372783:

Columns and labels:
thrombin [1] = biological target: T1, thrombin (human, UniProt P00734;P00734 328-363;364-622); assay: affinity probe capillary electrophoresis
thrombin [2] = biological target: T1, thrombin; assay: affinity probe capillary electrophoresis; remark: listed apart in the source
thrombin [3] = biological target: T1, thrombin; assay: fluorescence anisotropy
thrombin [4] = biological target: T1, thrombin; assay: fluorescence anisotropy; remark: listed apart in the source
thrombin [5] = biological target: T1, thrombin; assay: fluorescence anisotropy; remark: listed apart in the source
thrombin [6] = biological target: T1, thrombin; assay: fluorescence anisotropy; remark: listed apart in the source
thrombin [7] = biological target: T1, thrombin; assay: fluorescence anisotropy; remark: listed apart in the source
thrombin [8] = biological target: T1, thrombin; assay: affinity probe capillary electrophoresis; remark: listed apart in the source
thrombin [9] = biological target: T1, thrombin; assay: fluorescence anisotropy; remark: listed apart in the source

B1: 15mer Fl (FAM) (structured_DNA)
DNA: GGTTGGTGTGGTTGG
apparent K (half saturation) (thrombin [1]): 60.9 ± 5.3 nM | apparent K (half saturation) (thrombin [2]): 49.2 ± 1.2 nM

B2: 15mer, Texas Red (structured_DNA)
DNA: GGTTGGTGTGGTTGG
apparent K (half saturation) (thrombin [3]): 25 ± 1.5 nM | apparent K (half saturation) (thrombin [4]): 51.8 ± 2.9 nM | apparent K (half saturation) (thrombin [5]): 29.7 ± 1.1 nM | apparent K (half saturation) (thrombin [6]): 30.4 ± 2.6 nM | apparent K (half saturation) (thrombin [7]): 27.3 ± 1.6 nM | Kd (thrombin [8]): 4.5 ± 1.4 nM | apparent K (half saturation) (thrombin [9]): 23.7 ± 1.1 nM
